What all share (assay): nanoDSF thermal shift; ScChc-NTD mutants 10 µM with Ent1 or Ent2 peptide, thermal ramp up to 80 °C; apparent KD from the Tm shift model
Holding throughout (conditions): both partners purified
On the technique in general: DSF heats the sample and reads unfolding from a dye or from intrinsic fluorescence.

For assay [1], the target named is T1, ScChc-NTD Clathrin, Arrestin and W box mutant (Cla+Arr+W) (Saccharomyces cerevisiae, UniProt P22137 1-369, F26A | K63E | I87D | Q89A | K98E | Q155A | Q195A | I197T | K251E).
T1 construct: Clathrin heavy chain N-terminal domain, Saccharomyces cerevisiae, residues 1-369, Clathrin, Arrestin and W box mutant; also called triple mutant
T1 sequence (looked up): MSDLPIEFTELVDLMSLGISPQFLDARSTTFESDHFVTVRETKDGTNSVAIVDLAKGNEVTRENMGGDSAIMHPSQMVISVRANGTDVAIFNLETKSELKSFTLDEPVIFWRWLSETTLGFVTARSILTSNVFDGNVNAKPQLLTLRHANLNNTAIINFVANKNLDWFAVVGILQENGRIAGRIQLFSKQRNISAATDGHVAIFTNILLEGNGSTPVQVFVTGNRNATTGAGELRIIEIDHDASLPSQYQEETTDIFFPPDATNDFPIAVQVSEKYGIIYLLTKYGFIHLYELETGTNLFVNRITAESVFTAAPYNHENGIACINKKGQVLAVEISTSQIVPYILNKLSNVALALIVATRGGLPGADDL

Assay [2] concerns the target T2, ScChc-NTD Arrestin box mutant (Q195A, I197T, K251E) (Saccharomyces cerevisiae, UniProt P22137 1-369, Q195A | I197T | K251E).
T2 construct: Clathrin heavy chain N-terminal domain, Saccharomyces cerevisiae, residues 1-369, Arrestin box mutant; also called Arr mutant
T2 sequence (looked up): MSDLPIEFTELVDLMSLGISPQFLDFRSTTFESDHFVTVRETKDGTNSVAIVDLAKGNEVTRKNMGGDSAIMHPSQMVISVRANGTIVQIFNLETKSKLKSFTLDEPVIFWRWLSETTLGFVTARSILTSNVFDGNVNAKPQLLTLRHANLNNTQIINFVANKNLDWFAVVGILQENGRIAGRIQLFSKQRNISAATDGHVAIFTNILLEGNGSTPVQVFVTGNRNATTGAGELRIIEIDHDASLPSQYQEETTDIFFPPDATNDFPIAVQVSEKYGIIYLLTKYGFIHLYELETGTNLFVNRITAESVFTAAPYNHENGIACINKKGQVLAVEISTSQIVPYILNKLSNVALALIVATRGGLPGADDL

Assay [3] has as its target T3, ScChc-NTD Clathrin box mutant (K63E, I87D, Q89A, K98E) (Saccharomyces cerevisiae, UniProt P22137 1-369, K63E | I87D | Q89A | K98E).
T3 construct: Clathrin heavy chain N-terminal domain, Saccharomyces cerevisiae, residues 1-369, Clathrin box mutant; also called Cla mutant
T3 sequence (looked up): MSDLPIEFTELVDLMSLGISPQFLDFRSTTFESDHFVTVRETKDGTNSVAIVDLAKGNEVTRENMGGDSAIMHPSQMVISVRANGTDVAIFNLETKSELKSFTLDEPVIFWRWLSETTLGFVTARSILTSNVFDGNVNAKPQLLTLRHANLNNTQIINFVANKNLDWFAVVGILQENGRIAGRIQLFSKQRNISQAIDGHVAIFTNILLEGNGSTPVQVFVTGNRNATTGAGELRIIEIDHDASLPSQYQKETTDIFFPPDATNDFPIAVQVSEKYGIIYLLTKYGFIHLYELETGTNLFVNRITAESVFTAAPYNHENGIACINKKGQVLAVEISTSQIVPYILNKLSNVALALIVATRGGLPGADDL

For assay [4], the target named is T4, ScChc-NTD Clathrin and Arrestin box mutant (Cla+Arr) (Saccharomyces cerevisiae, UniProt P22137 1-369, K63E | I87D | Q89A | K98E | Q195A | I197T | K251E).
T4 construct: Clathrin heavy chain N-terminal domain, Saccharomyces cerevisiae, residues 1-369, Clathrin and Arrestin box mutant
T4 sequence (looked up): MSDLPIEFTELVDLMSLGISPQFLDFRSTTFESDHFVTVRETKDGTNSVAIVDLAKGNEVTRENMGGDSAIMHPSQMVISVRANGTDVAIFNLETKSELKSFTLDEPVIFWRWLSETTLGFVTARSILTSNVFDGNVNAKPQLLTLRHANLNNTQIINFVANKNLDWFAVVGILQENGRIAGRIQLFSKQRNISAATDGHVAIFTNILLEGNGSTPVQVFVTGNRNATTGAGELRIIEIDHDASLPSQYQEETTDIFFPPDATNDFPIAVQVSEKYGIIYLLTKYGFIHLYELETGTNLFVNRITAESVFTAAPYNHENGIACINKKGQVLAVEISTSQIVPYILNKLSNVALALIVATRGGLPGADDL

Assay [5] has as its target T5, ScChc-NTD Clathrin and W box mutant (Cla+W) (Saccharomyces cerevisiae, UniProt P22137 1-369, F26A | K63E | I87D | Q89A | K98E | Q155A).
T5 construct: Clathrin heavy chain N-terminal domain, Saccharomyces cerevisiae, residues 1-369, Clathrin and W box mutant
T5 sequence (looked up): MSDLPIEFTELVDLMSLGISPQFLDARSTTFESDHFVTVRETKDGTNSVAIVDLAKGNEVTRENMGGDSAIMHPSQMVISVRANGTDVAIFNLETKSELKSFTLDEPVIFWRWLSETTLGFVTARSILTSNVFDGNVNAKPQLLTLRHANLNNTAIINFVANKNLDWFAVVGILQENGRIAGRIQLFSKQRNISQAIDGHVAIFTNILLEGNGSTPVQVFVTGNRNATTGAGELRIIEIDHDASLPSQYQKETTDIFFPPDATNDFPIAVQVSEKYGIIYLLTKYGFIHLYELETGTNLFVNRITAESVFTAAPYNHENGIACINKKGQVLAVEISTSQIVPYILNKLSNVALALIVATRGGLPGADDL

B1: Ent1 CBM peptide (GYTLIDL) (peptide)
peptide: GYTLIDL
notes: also called Ent1 peptide; source: synthetic peptide, bought: NovoProLabs
With B1, the Kd was roughly 3450 µM in assay [1], roughly 166 µM in assay [2], roughly 968 µM in assay [3] and roughly 2050 µM in assay [4]. For the same molecule, the “fold decrease in binding against WT NTD” value in assay [5] was roughly 9 fold.

B2: Ent2 CBM peptide (GVSLIDL) (peptide)
peptide: GVSLIDL
notes: also called Ent2 peptide; source: synthetic peptide, bought: NovoProLabs
As for B2, the results for the Kd in assay [1], in assay [2] and in assay [3] were roughly 1040 µM, roughly 216 µM and roughly 509 µM, respectively. Besides, the “fold decrease in affinity against WT NTD” value in assay [4] was roughly 5 fold. Besides, in assay [5], the “fold decrease in binding against WT NTD” value was roughly 9 fold.

The record behind these values is paper PMC11543927, “Subtleties in Clathrin heavy chain binding boxes provide selectivity among adaptor proteins of budding yeast” (Nature Communications, 2024).
